Data set [1] concerns HK1-LMP1 cells. Description: Cellular uptake by ICP-MS, HK1-LMP1. The data set is classed as cell-based. The protocol:
(§1) Subsequently, the quantitative distribution and uptake efficiency of nanoprobes in vitro in C666, HK1, HK1-LMP1 and LCL3 cells lines were monitored and investigated by evaluating the lanthanide content originating from the nanoprobes using inductively coupled plasma mass spectrometry (ICP-MS).
(§2) After co-incubation, the cell culture medium containing the nanoprobes was removed, and the exposed cells were further rinsed with 1 mL PBS three times. After that, the cells were trypsinized and re-dispersed in 1 mL cell medium. The cells were collected by centrifugation at 1500 rpm, and the cell pellet was digested in 100 μL concentrated HNO3 (69%) at room temperature for 3 h. Then, each cell pellet in centrifuge tube was filled up to 10 mL with 1% HNO3. The cellular uptake of all the nanoprobes was recorded via an Agilent 7500 series ICP-MS instrument. All ICP experiments were performed three times, and the values of Gd concentration (ppm) obtained were calculated and averaged.

In data set [2] the test system is p65. Description: Western blot of p65 (NF-κB) in C666 cells. It is filed as cell-based. The source says: NF-κB signaling pathway is critical for the survival of EBV-infected tumor cells. Here we investigated if our nanoprobes could affect this oncogenic pathway. EBV-positive LCL3 and C666 cells were used as models, EBV-negative HK1 cells were used as control and Western blot was used to analyze the protein expression of p65, a major transcription factor in the NF-κB family. […] GAPDH and Histone are regarded as internal standards in cytosolic and nuclear fractions, respectively. […] This is consistent with the cellular uptake results.
Western blotting: EBV-positive C666, LCL3 and EBV-negative HK1 cell pellets were treated with phosphatase and protease inhibitors at 0-4° C. for 30 min. The total protein concentrations were calculated by protein absorbance. The protein was resolved by sodium dodecyl sulfate-polyacrylamide gel electrophoresis (SDS-PAGE) and transferred to cellulose filter membranes. The membranes were blocked with 3% BSA in Tris-buffered saline in 0.1% Tween 20 (TBST) for 1 h with gentle shaking and subsequently incubated with primary antibodies (1:1000) in 3% BSA in TBST at 4° C. for overnight. After rinsing with TBST buffer three times, the blots were then incubated with corresponding secondary anti-rabbit antibody (1:6000) for 1 h. After that, the blots were rinsed again with 3% BSA in TBST for 1 h shaking at room temperature. Lastly, the density of bands was determined by image analysis system after washing with TBST buffer three times.

Data set [3] relates to C666 derived xenografts. As to the kind of experiment: In vivo suppression assay, C666 xenograft. An excerpt:
To determine the antitumor efficacy of the new nanoprobes in vivo, their therapeutic effects were investigated in C666 and HeLa derived xenografts in BALB/c nude mice. The mice were randomly divided into five groups: (1) control (PBS), (2) UCNP, (3) UCNP-P5, (4) UCNP-P6, (5) UCNP-P7. In order to recapitulate the clinical setting of drug delivery, intravenous injection (via a tail vein) was used to deliver these agents to the immunocompromised animal.
In vivo suppression assays: EBV-positive C666 and EBV-negative HeLa cells were suspended in 200 μL of serum-free RMPI 1640 and DMEM respectively. Female BALB/c nude mice (6-8 weeks) which obtained from HKU were then injected with the cells in the right flank. Intravenous injections were performed when the average tumor volumes reached ˜200 mm^3. 0.25 mg/tumor dose of UCNP and UCNP-Pn [n=5, 6 and 7 (SEQ ID NO: 5, 6, 7)] in […] PBS buffer were injected through tail vein of mice using a 24-gauge syringe. Mice injected with the same volume of PBS buffer served as control. The body weight and tumor volumes of the mice were measured three times per week; in which the latter is calculated by (L×W^2)/2, where L and W are the longer and shorter tumor dimensions respectively. Intravenous injection at the tail vein were performed twice a week and the mice were sacrificed after 33-day experimental period; the tumors were extracted and weighed. The treatment groups are unknown to the investigators for the experimental and data analysis processes. The animal experiments conducted were approved by the Department of Health of the HKSAR Government. All animal procedures are within the Guidelines for Care and Use of Laboratory Animals of HKBU and approved by the Animal Ethics Committee of HKBU.
Hematoxylin and eosin (H&E) staining: In general, the transplanted C666 and HeLa derived tumor tissues were collected and fixed with formalin, followed by embedding in paraffin. The histologic sections were then stained with hematoxylin and eosin. Other major organ tissues (heart, liver, spleen, lung, kidney, brain) were conducted in the same procedures.

Data set [4] has as its system C666 cells. Description: Cellular uptake by ICP-MS, C666. It is filed as cell-based. The protocol:
as §1, §2

Data set [5] relates to EBV-positive C666 cells. Description: Two-photon confocal imaging, C666. It is filed as cell-based. The settings on record: mainly from the nuclei, 24 h incubation. The protocol: After the study of cellular uptake, fluorescent confocal microscopy was used to study the sub-cellular localization with the same set of EBV-/LMP1-positive and -negative cell lines. All these cell lines were treated with as-prepared samples for different time intervals of 1 h, 3 h, 6 h, 12 h and 24 h. Fluorescence signals in the cells were imaged under 980 nm excitation.
The cells were then co-stained with 0.05 mM nuclear dye DRAQ5 for 0.5 h for confocal imaging with a Leica SP8 confocal microscope equipped with a coherent femtosecond laser (690-1050 nm), argon laser (432 nm, 457 nm and 488 nm), He—Ne laser (632 nm), UV lamp. A stage-top cell culture chamber was also used to maintain the atmospheric conditions of 2-7% CO2 and a temperature of 37° C.

In data set [6] the test system is EBV-negative HeLa cells. Description: MTT cytotoxicity assay, HeLa cells. It is filed as cell-based, human. Also noted: unit not given here. The settings on record: 24 h incubation.
Data set [7] in a line: Peptide release from nanoprobes under various time intervals (UV-vis absorbance). Particulars: 0.5 mg/mL. The data set is classed as physicochemical. The source says: The stability and capability of cleavage of the pH linker were also studied. […] More importantly, TEM images of UCNP-P5 at different pH buffers were observed and investigated in FIG. 1, providing direct evidence on pH-responsive peptide release from UCNP.

Data set [8] deals with EBV-negative MRC-5 cells. As to the kind of experiment: MTT cytotoxicity assay, MRC-5 cells. It is filed as cell-based, human. Also noted: unit not given here. Particulars: 24 h incubation. (Tetrazolium assays rely on reduction of a dye to a coloured formazan, in cell work by metabolically active cells.)
[9] abbreviates: C666 tumor-bearing mice, 33-day experimental period.

Where no end group is shown, it is not given here. [ ]: non-standard residue; d: D form. Ahx = NCCCCCC(=O)O

On to “UCNP-P5: UCNP is NaGdF4:Yb^3+, Er^3+@NaGdF4 and plurality of polypeptides is Ahx-YFMVFGGRrRKGGFWLY (SEQ ID NO: 5), pH-sensitive imine linker ([Ahx]YFMVFGGR[dR]RKGGFWLY; also: conjugated to UCNP NaGdF4:Yb3+,Er3+@NaGdF4 via pH-sensitive imine linker)”, for which the “Uptake relative to UCNP-P6 and UCNP-P7” value in data set [1] (HK1-LMP1 (HK1 / HK1-LMP1 cell pair)) is recorded as “two-fold”. Besides, the “Cellular uptake (Gd amount by ICP-MS)” value in data set [1] (HK1-LMP1, 50 μg/mL) is reported as “largest amount of cellular uptake”; in data set [4] (50 μg/mL) it was “largest amount of cellular uptake”. The “Decreased p65 expression, nuclear fraction” value in data set [2] amounted to 89%. Also, the “Effect on average tumor size” value in data set [3] (12.5 mg/kg, intravenous (tail vein), twice a week, 33 days) is given as “significantly reduce the average tumor size”. For the same substance, in data set [3] (C666 tumor, Gd ions), the “Tumor uptake relative to UCNP-P6 and UCNP-P7 (ICP-MS biodistribution)” value was ~3 fold. In addition, the Body weight result in data set [3] (setting [9]) was “slightly increased”. Further, in data set [3] (setting [9]), the Various organ weights result is “slightly increased”. Besides, in data set [4] (24 h incubation), the “Gd amount relative to UCNP-P4” value was “over twice”. The “Responsive emission enhancement (lambda scan)” value in data set [5] was “two-fold”. In addition, in data set [6], the “IC50 in HeLa” value was 1086. Further, the Peptide release rate in data set [7] (1 h) turned out to be 0%; in data set [7] (3 h) it was 0%; in data set [7] (6 h), 0.1%; in data set [7] (12 h), 0.5%; in data set [7] (24 h) it was 0.7%; in data set [7] (3 day), 0.8%. The Peptide release rate was determined as 1.1% in data set [7] (5 day) and 1.9% in data set [7] (7 day). In addition, the “IC50 in MRC-5” value in data set [8] is 1280.

The values are drawn from patent US11938195B2, “Upconversion nanoparticle peptide conjugates” (BP InnoMed Limited, priority 2021, dated 2024).
